Results reported in the DeepSol protein solubility set.

Experiment: soluble on expression in E. coli; label from the status in PepcDB or PDB records

| Sequence | soluble on expression in E. coli |
| --- | --- |
| MSLGHPVDTFRRENKALRESAARLQKAMNGVLETADDGDASARLLEWRQALNELQDVDKHYQRKEHLLSTCLERHGITGPSKVMWGKDDQIRELLKDTSVALRQSDTSVAELKVLAATTGAAAAGAVHEMIYKEEQILLPICLERFTADEWAEIWASSPRYGWCLVEPRQGYKPFTSEAAGRASVDGGVSLPTGALALEQLIAIFSTLPVDLTFVDANDRVAFFSEGPSRVFARSRTIVGRMVQNCHPPRSVDVVERILSDFREGRQNVAEFWLQFVGRFVHIRYFAVRSEDGRYLGTLEVTQDVGPIRALEGERRLLEYAEPSEGHHHHHH | not soluble |
| MSLGISEAFDLRPDYIISVIKDTKAKLVGFQFPEGLKRKGPELAKIVEEATGAEVLISGDPCFGACDLDRTLLDHVELLFHFGHAELEDVRLSDKVYFIETRSSVDVRPVVEKALPGLKGEKIGLITTVQHVHKLHDVCRVLEAGGKTCVIGRGDSRLAYAGQVLGCNFSAARDEVCDEYLYIGSGDFHPLGVALSTKKRVLAADPFSGEVREVDPSRILRQRSAVIAKSLDAQVFGIIVSSKNGQMRMELASSLKEIAKKHGKEAHLILIDLVTPDQLLQFKVDAFVNTACPRLAVDEVGRFPSPMLTPQEFEIVLGEREWEKLVLDEITEEPVLEHHHHHH | soluble |
| MSLGKGEKFQIEFVSANPTGDLHLGHARGAAIGDSLANIMKMAGFDVSREYYINDAGNQINNLVLSAEARYFEALGLDSEFPEDGYRGADIISLGKDLAAKYGDKYVHTSEEERRSVFRVDALAFETGKLRADLEEFRVSFDEWFSETSLYEENKVLPALERLRENGYIYEQDGATWLRTTDFEDDKDRVLIKSDGSYTYFLPDIAYHLNKLERGFDVLIDIWGADHHGYIPRMRAAIEALGYSPNQLEVEIIQLVHLFEDGVQVKMSKRTGKSVTMRDLIEEVGLDATRYFFAMRSSDTHMNFDMSLAKSTSNDNPVYYVQYAHARISSILRSGKEQGLEVTKDADMSLLQTEAEYDLLKVLGEFADVVAEAATKRAPHRIVRYLNDLASSFHRFYNSNKVLDMDNLEVTKARLALIKTAQITLRNGLTLLGVSAPEKEGHHHHHH | not soluble |
| MSLGKKLKIFFIDDDIALGHICTRIMQEEGYEVLYQTSLNGAKACIVETHPDMIVLDVEIGNKNGIEAVPELKAIAPNTPILFISSHTNSQLVVQALSAGAVAYLKKPLEIDELIAYIKRYAISHPYQIKIGSLLLDTDTQLLCTKELRVIKQLSEAEYKLLKLLVAYKEQLVERRQIEEELWGKVNGNEQGINNLISKLRKYLSIDPTIELVTIPRNGYKLSVNLSEGHHHHHH | soluble |
| MSLGKLFGTDGIRGVTNTELQPEFALKIGKAIGTYFGKGARILIGRDVRAGGDMLLKAVESGLLSSGVLVYEAGMAPTPAFQYGVKALGYDGGVIITASHNPAEYNGIKVLSPHGIEISREDEDKIEDIYFNSRFHVVEWNGLVNDVKREDKVIETYLRGILSHVDTEKIKSKKYKVLIDPANSVGTLVTPIVARELGCKVFTINGNLDPLFSARTPEPTFESLTESAKVAKQLGVDLAVAHDGDADRAIFIDSMGRVQWGDRSGTLLSYWASVKAPNLPRRIFTAVSSSSLVEEYLKKYNIEVKWTKVGSIDIAHMLFKEKGVAGFEENGGFMYPPHQTVRDGAMSFALMLDMMASENESSAELFNRLPVYYLVKTKVRVTEKSDIKKIYDEVMNKYGNYGNTVTIDGVKIIGSDFWLLVRKSGTEPIIRILVEAKDENKSKELAKELEKLVSELVEGHHHHHH | soluble |
| MSLGLIVQKFGGTSVGSVEKIQNAANRAIAEKQKGHQVVVVVSAMGKSTDELVSLAKAISDQPSKREMDMLLATGEQVTISLLSMALQEKGYDAVSYTGWQAGIRTEAIHGNARITDIDTSVLADQLEKGKIVIVAGFQGMTEDCEITTLGRGGSDTTAVALAAALKADKCDIYTDVPGVFTTDPRYVKSARKLEGISYDEMLELANLGAGVLHPRAVEFAKNYQVPLEVRSSTETEAGTLIEEESSMEQNLIVRGIAFEDQITRVTIYGLTSGLTTLSTIFTTLAKRNINVDIIIQTQAEDKTGISFSVKTEDADQTVAVLEEYKDALEFEKIETESKLAKVSIVGSGMVSNPGVAAEMFAVLAQKNILIKMVSTSEIKVSTVVSENDMVKAVESLHDAFELSKHPSAVEGHHHHHH | soluble |
| MSLGMTHSFITEWDNTPKTKMRFSREVSFAELQRVTNCMAKHEIPSIEDFIWVLKEAAKVLSTLPNNVHVIPEPNDRLIFVGDLHGCFETLIRLFLGYPQQNIPRTGFPGEIVDGRRLVYFFNGDFVDRGGSGYQIVFLLAYMAIACPGSCYLNRGNHESEMFGLSTQGMLGNKFMSEMAGKFSGMDPETYRPAIGEFFCALPIAHTIDRNIFMVHGGVPLGDDLSNVPRAAPQSYFSTGSPAPIPKGLKPYKISNLDNLTPSRQKTTNFEDNPRKQNELWHSFVWNYDRLPYSADFMEENNFKTMVHSHTATPFHQITSFLPLEKTSGEKYSIQSVIKNQEMFDRMKAFFASHQLANSSKLSILEIFSSPTEGHHHHHH | not soluble |
| MSLGNDNEKSTTKTSPDKIKFLETSELLTLNTTAEEDFASFTAQNQVFEGLYTLDQKDNFVPGVAGGMPEISADQTKYTIKLKKNAKWSDGSQVTADDFVYAWRRAVDPKTAPGYSALFKDSIKNATEINEGKLPVTDLGVVATDPTTLEITLKKPVPYFISLLSFETFFPQKESFVKKQGDKYGTDSAHTLYNGPFVMKDWGGNITNKWTYAKNDQYWDKDNVKVNEIDVQVAKDINAGVNLYNTNEADRVPLSGDFAKQYKDKKDFQTEKDALISYLRMNQKRDGKATPLANNSLRHALNLAVDKKQLTDRILGDGSFPANGLLPKDFVQNPTTGADFRTDSGDHLVYNKEEALKYWKQAQKELGTDKVTIELLGDDQETTKTIFAYLKAQFEDNLPGVTIKVKNMPSKSATQLTSDGNYDLSLAAWMPDFKDPWTYSSLFLSDYFNNHMSYNSPAYDRLVKSTDTTLATKPEERWNAFVASEKVLLDDDAAILPLYQHQTAVLQRTDITGVQKHAFGSPYSYKFIRVEKEGHHHHHH | soluble |
| MSLGRFKTLLNQEDYLILHGALGTELEFLGYDVSGKLWSAKYLLENPSIIQTIHETYLRSGSDIVTTSSYQASYQGLCDYGLSQEEAEKMIALTVSLAKNAREKVWQELSEKEKQVRPYPLISGDVGPYAAYLADGSEYTGNYGQLDKEVLKDFHRSRIKILVDEGSDLLALETIPNFLEAQALVELLQEEFPSVEAYMSFTAQNGTTISDGTAIEEVAELIDKASQILALGINCSSPSVYSSLLKKIADITDKPLVTYPNSGEVYDGQHQMWTQSADISHTLLENTKIWHTFGAKVVGGCCRTRPNDIESLSRGLREEGHHHHHH | soluble |
| MSLGRVTITAVAREAGVSAITVSRYFNQPEQVSPELRERIAAVVNALGYVPNLVAGGLASARSRVVAMVIPNISGPIFANTIQGFSDTLSQHGFQLLLASSYFSAEQEESAVRAFLGWSPAALVLTSRFHSPATEKMIEQTDVPVIETWDHQPERSPIQIGFSHYDVGVTAARYLYDKGYRRIAFVQNSIAGDFSALERRDGYIATLEGLGIKPWVFVPDAGRAPFEAGKQAMETLMSQTPRPDAIFFANDNLAAGALLASQRAGLHIPKDCAVMGFGDYAFAEMMLPSLTTIKPPALEIGVLAATRVLESLGVLPVEGDIQRLNLLECRLVERESTEGHHHHHH | soluble |
| MSLGSIPNDIKVPLVYIEIDNSNALSGTPALAQKVLVIGQQLGTGTASPLTLNRITNSESQMDALFGKGSMLARSLKMFRKSNDYTDVYALGVADLSAGSAAKGEITIAATTAKAGVIALLIAGESVQVGVDEAATAATIATAMIAKINANTNLPVTAALKAATTETVELTAKWKGQTTNDIDIRYNYYDGEQLPQGVTLTVVEMTGGAGTPDMDAVIAAIPNEWYNHIVMPYNDTQSMNKLRDELVNRWGPLKMIEGIAYTAFRGTFAESGAFGVARNDYLFTCMGTNKAPHSPWEWAAAYAGQASYSLGIDPARPLQTLVMTSLLPPAKEIQWDPTERNLLLGDGIATYMVTPSGEVAIEREVSMYRENSYGDPDPSYLDITTPATLGYLRYSLRVMVTNRFPRHKLAGDDVLARLDPGQPVVTPKIMRNAMLELANNDWVPKGLMEDFDGFKETLEVYRDSSDQNRLNCVFKPDIVNQFRIFAALMQFKL | not soluble |
| MSLGSRKKFGATYMTTNNRFYEIINDEIRSVVESNGDILVTRDAALDKNKQMQQIYEFIKLKVKAIFINPVDWKQIKPALIAAKNAGIPVIVVDTPVYDDKLVACTVISDNYDAGVQCAKYLMKSKSKANIMLIEHSKAKSGIDRIKGFVDTIGASKQYKIVAAGDSEGQLDKTMSLVDDLIKKHTNVDAIMALNDPSALGALAALKENGLLGKVMVFGVDGSPEAKTMIHDGFMTATSAQFPNKIGHIAAEKAYDILKGKRLKRDVIVPISLISKENLLKYEISGWKEGHHHHHH | soluble |
| MSLGTPVTLRMDTTDADGRITLGDLFDGVSGPAANVVVAARMSATAVLEAGQVQMSARRAGYVWTNANGVRRIIVREGVDNGGVSSSAAPGAQLAGARLAGAPRANVEVLPYARSLSAGEIVQPQDLIWVKMAGAPADAPRDADAVIGLAAKRPLREGAPVGMKDVAAAQVIKSGDLITITYEDGGISLSLQGKAMAAAAAGDVFAVQNTLSKKIIQAVAVGPGAAAVGPQEGHHHHHH | not soluble |
| MSLHATMEDVAKLAGVSLKSVSRVINAEPHVSAKLRAKVEAAIAELNYVPDTAARSLAGSRAFIVGLLFDNPSPNYTMNIQKGVYETCRDQQHHLRIDNIDSTVPAEKFEAQLAAMVRNSRCDGFVLTPPLTDNVVLLDFLDRSGIRYVRIAPDIQPDRSPGVCIDDAAAAAAAARHLWELGHRRFAVVRGPASHGAAGRRRQGFIDELHRLGAENPIIEAEGNFSFESGIAAGAKVLAATPRPTAIFAANDDSAAGVMVACSQAGLKVPNDVSVCGFDDSWVAKSVWPYLTTVYQPIEEMGRAAAALLLRRDEPDNVLHELDFSLVVRASTAEGHHHHHH | soluble |
| MSLHILHIASSPRGERSVSLKLASRYLETLTSLHPESTVDVLDVWTIDLLPFDGPALEAKYADLQGVQMSDEQQAVWKQIHALGERFHRADVILFSVPMWNFGVPYRLKHLIDSVSQRGVLFEFDAQGMRGLLKGKNVVVFASRGVALGEDFPTEAYDHQVAYLKTWARMVGIPTIDAVLSEATLADPATAEANFTAALAEASKLAAAVQEGHHHHHH | soluble |
| MSLHNNIDAFTLKPRHVEQIRQALPEVAITVSASDSDFMDRLPDAEYALVWVFKPEWYATAPRLKALFTPAAGRDWVAADPSGRVMTCHGSFHGRIMRESLLSMMLYFNRRLGQSLEDQGRRMWGRPDYSGCVGLFSQRVMIVGLGALGQSMAELLKAFGAHVTGVKRNPESFAGSPCVDRVISFDALEEALPEADHVVLLLPGGTATDGIFTARHFNAMRPGAYLYNLGRGNCYREEDLVAALEDGRLAGAGLDVFAEEPLPASSPLWEQRNVLITPHSSAISREYLDLFIQEWLETLRKGAPQNEGHHHHHH | not soluble |
| MSLHQFLLFKIKVPTGSMMPTVEIGDQLFVTKIYNPNNIKRGDIVVFNSDELKEPLLKRVIGLPGEHVEIKSDGSVYINGNKLEEDYVKYQGGKTDMSFDVPSGKFLMLGDNRNNSDDARYWSNPYIDGKDIEAKAQLTVYPFDRIGFVKEGHHHHHH | soluble |
| MSLHRISDRFPVHVVVWPVKVQGEGSGEEVANAIRGFNALKPGGDIARPDVLIVARGGGSLEDLWSFNDEIVVRAAAESEIPLISAVGHETDTTLIDYAADVRAPTPTGAAEMAVPVRAELEAQLSGLAARLSGSVSRQMDNRRQGVRALVRALPSLDQLLALPRRRFDEAASGLGRGLELTTLNKRRAFERSASGLRPETLLNGLKHHRQRITERMHRAETLVEREGHHHHHH | soluble |
